Experimental findings from patent US20220281967A1 (OREGA BIOTECH, published 2022) are described below.

Assay [1] addresses T1, human IL-17B (R&D Systems, ref: 1248-IB/CF) (UniProt Q9UHF5 21-180).
T1 chain: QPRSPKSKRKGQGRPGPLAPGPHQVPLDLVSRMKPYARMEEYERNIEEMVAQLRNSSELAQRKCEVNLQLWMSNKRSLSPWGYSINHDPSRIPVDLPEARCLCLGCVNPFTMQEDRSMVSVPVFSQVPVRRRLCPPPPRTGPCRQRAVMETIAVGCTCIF
The experiment in a line: ELISA.

Assay [2] addresses T2, human IL-17B (R&D Systems, ref: 1248-IB/CF) (human, UniProt Q9UHF5 21-180).
T2 construct: Bought recombinant protein; also called hIL-17B; interleukin 17B
T2 sequence: T1 chain
The experiment in a line: ELISA, human IL-17B coated on the plate, goat anti-mouse HRP detection. On the technique in general: An ELISA detects its analyte on a solid surface through an enzyme-linked reagent.

As usually defined, the EC50 is the midpoint of the concentration-response curve. A low value points to higher potency in that assay.

B1: Antibody 21H6 (antibody, V domains shown)
VH: QVTLKESGPGILQPSQTLSLTCSFSGFSLSTFGMGVGWIRQPSGKGLEWLAHIWWDDDKYYNPALKGRLTISKDTSKNQVFLKIANVDTADTATYFCARIEDALDYWGQGTSVTVSS
VL: DIVMTQSPATLSVTPGDRVSLSCRASQNISDYLHWYQQKSHESPRLLIKYTSQSISGIPSRFSGSGSGSDFTLSINSVEPEDVGVYYCQNGHSFPFTFGSGTKLEIK
notes: Mouse monoclonal antibody directed against human IL-17B; also called mAb 21H6
B1 came in with an EC50 in assay [1] of 2.28 ng/mL. Besides, in assay [2], the binding result is reported as “binds”.

B2: Antibody 12F9 (antibody, V domains shown)
VH: QVQLQQSGPELVKPGASVKISCKASGYTFTDYFINWVRQRPGQGLEWIGWIFPGSGSTYYHEKFKGKATLTVDKSSSTAYMLLSSLTSEDSAVYFCARTLYGNWYFDVWGTGTTVTVSS
VL: DVLMTQTPLSLPVSLGDQASISCRSSQSIVHSNGNTYLEWYLQKPGQSPKLLIYKVSNRFSGVPDRFSGSGSGTDFTLKISRVEAEDLGVYYCFQGSHVPYTFGGGTKLEIK
notes: Mouse monoclonal antibody directed against human IL-17B; also called mAb 12F9
On to B2, for which it took 13.7 ng/mL to reach a half-maximal effect in assay [1] (EC50). Also, the binding result in assay [2] is “binds”.

B3: Antibody 18G9 (antibody, V domains shown)
VH: QITLKESGPGILKPSQTLSLTCSFSGFSLSTSGMGVGWIRQPSGKGLEWLAHIWWDDDKYYNPSLKSQLTISKDTSRNQVFLRITSVDTADTATYYCARRTQGYFDYWGQGTTLTVSS
VL: DILMTQSPASLAVSLGQRATISCKASQSVDYDGDSYMNWYQQKPGQPPKLLIYAASNLESGIPARFSGSGSGTDFTLNIHPVEEEDAATYYCQQSNEDPLTFGAGTKLELK
notes: Mouse monoclonal antibody directed against human IL-17B; also called mAb 18G9; 18G9a
B3 showed a concentration for a half-maximal effect (EC50) in assay [1] of 6.88 ng/mL. Moreover, the binding result in assay [2] is on record as “binds”.

B4: Antibody 13H5 (antibody, V domains shown)
VH: QVTLKESGPGILQPSQTLSLTCSFSGFSLSTFGMGVGWIRQPSGKGLEWLAHIWWDDDKYYNPALKSRLTISKDTSKNQVFLKIANVDTADTATYYCARMNDGYLYYWGQGTSVTVSS
VL: QIVLTQSPAIMSASPGEKVTMTCSASSSVSYMYWYQQKPGSSPRLLIYDTSNLASGVPVRFSGSGSGTSYSLTISRMEAEDAATYYCQQWSSYPFTFGSGTKLEIK
notes: Mouse monoclonal antibody directed against human IL-17B; also called mAb 13H5
The molecule B4 registered an EC50 in assay [1] of 6.64 ng/mL. Moreover, the binding result in assay [2] is “binds”.
